Measurements taken from patent US20050032039A1.

Target: HLA class I
Experiment: cell-based or functional assay

## W6/32, the class I-specific antibody
  reduction in HIV-1 envelope-specific CTL activity (PBMCs from LB as effector cells, E:T 25:1, 1:4 dilution of W6/32 hybridoma supernatant): 73%
  specific lysis value with W6/32 (PBMCs from LB, E:T 25:1): 6.2%
  specific lysis value without W6/32 (PBMCs from LB, E:T 25:1): 23.2%
